The values that follow come from publication PMC11739564, “Structure and function of a β-1,2-galactosidase from Bacteroides xylanisolvens, an intestinal bacterium” (Communications Biology, 2025).

For data set [1], the target named is Bxy_22780 E350G mutant (nucleophile mutant) (Bacteroides xylanisolvens). Put plainly: crystal structure; E350G mutant, ligand-free; 10–11 mg/ml in 50 mM MOPS (pH 7.5), 300 mM NaCl; reservoir 0.2 M sodium citrate tribasic dihydrate, 20% PEG 3350, 100 mM bis–Tris propane (pH 7.5); 20 °C; oligomeric state from PISA server analysis of the crystal structure.
Data set [2] has as its target Bxy_22780 (GH35 β-1,2-galactosidase from Bacteroides xylanisolvens), wild type (Bacteroides xylanisolvens). Put plainly: crystal structure; WT enzyme co-crystallised with 20 mM galactose or MeβGal; reservoir 0.35 M potassium thiocyanate, 12% PEG 3350; 20 °C; oligomeric state from PISA server analysis of the crystal structures.
Substrate in the data set “purified protein”: O=[N+]([O-])c1ccc(O[C@@H]2O[C@H](CO)[C@H](O)[C@H](O)[C@H]2O)cc1
The experiment in a line: purified protein. The note with it: hydrolysis, kinetic assays at pH 7.5, 30 °C.

Substrate in data set [3]: C[C@H]1O[C@@H](Oc2ccc([N+](=O)[O-])cc2)[C@H](O)[C@@H](O)[C@H]1O
The experiment in a line: hydrolysis kinetics (read-out for this constant not clearly told). Format: biochemical, Bacteroides xylanisolvens. The note with it: kinetic assays at pH 7.5, 30 °C. From the text:
hydrolysis kinetics (read-out for this constant not clearly told) on Bxy_22780

With “Bxy_22780 E350G mutant (nucleophile mutant) (enzyme)”, in data set [1], the stoichiometry N stood at 4.

“Bxy_22780 (GH35 β-1,2-galactosidase from Bacteroides xylanisolvens), wild type (enzyme)” showed a stoichiometry N in data set [2] of 4.

B1: Bxy_22780 (Bacteroides xylanisolvens XB1A) (protein)
chain: RPPMYTSTNTEVPSRLVKNEHGSWQLIVNGKPFIMLAGELHNSSASTTEYLNSLWTSLKTLNLNTVLAPIAWEQFEPQEGIFDYTLINNMIDGARKNGFKLSILWFGSWKNGESSYAPTWVKEDTKRFFRVKSVEGKEIETISPFCENAMKADAKAFKTLVEHIKKVDQATGTVIALQPENEVGIFQGMDYSKASLAAYEQEVPQALIQYMKKNRKNLRKELLSVWEENGARTSGAWKTVFGDNAWSKSFYTTWQYATYIDFISAGAKEIYPLPTFCNCWLVQKPDDMPGVYPNGGPVSRVMDIWKAAAPHIDVLAPDIYLSDFKNIVADYHRADNPLLIPEAVMKPANAFWAFGEHSALCYSPFGIEDGADNFVFAQSYKVLNELIPLISEHQGSDRMIGVMKMPGESERTVTMGDYQLCIKYDAEDAYGLIIQTGKNEFVVAGINFKVYFTSTDKKKTGYIKQVWEGGYDTDGEWKATRLLNGDETYHNAVLIAKGRRTFTSEKSNNYNADHSDEIFVYSPTSYQAVWSPGIYRVTTYLR
notes: N-terminal signal peptide (22 residues, counted with the 14 upstream residues) removed; C-terminal His6-tag (pET30a), E. coli BL21(DE3); homotetramer, D494 of a neighbouring subunit contacts subsite -1
With B1, in the data set “purified protein”, the Km was 3.49 ± 0.53 mM, the Vmax amounted to 21.2 µmol/min/mg and the Vmax/Km stood at 6080 µL/min/mg. In addition, in data set [3], the Km came out at 7.95 ± 0.46 mM, the Vmax stood at 14 µmol/min/mg and the Vmax/Km was determined as 1760 µL/min/mg.

The stoichiometry N is the number of molecules, sites or subunits per partner or assembly. The term Km denotes the substrate concentration at which the rate is half of its maximum. As a reminder, the Vmax is the rate approached at saturating substrate.
